Test results: patent publication US20140030731

Experiments:
[1] = biological target: GFP-RhoAV14E40L (constitutively active mutant of RhoA defective in its interaction with ROCK), P61586
[2] = biological target: constitutively active GFP-RhoAV14, P61586
Sequence of constitutively active GFP-RhoAV14, P61586 (P61586 other isoform, or with tags, fused parts or gaps): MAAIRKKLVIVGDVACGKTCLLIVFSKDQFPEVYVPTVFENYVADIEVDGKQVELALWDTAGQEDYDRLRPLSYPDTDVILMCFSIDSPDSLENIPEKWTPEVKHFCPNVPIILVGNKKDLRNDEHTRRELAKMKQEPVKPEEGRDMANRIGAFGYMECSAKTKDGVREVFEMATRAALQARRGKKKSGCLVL

Sequence of GFP-RhoAV14E40L (constitutively active mutant of RhoA defective in its interaction with ROCK), P61586 (P61586 other isoform, or with tags, fused parts or gaps mutant): as the sequence (P61586 other isoform, or with tags, fused parts or gaps) above, with E40L counted along it

Row | Protein | level of ROCKII Ser^1366 phosphorylation (Western blotting with antibody-II, HEK-293T extracts) [1] | level of ROCK Ser^1366 phosphorylation (Western blotting with antibody-II, HEK-293T extracts) [2] | level of ROCKI Ser^1333 phosphorylation (Western blotting with antibody-I, HEK-293T extracts) [2]
1 | endogenous human ROCKII, Ser^1366 phosphorylated (HEK-293T cell extracts; human breast tumor tissue) (protein) MSRPPPTGKMPGAPETAPGDGAGASRQRKLEALIRDPRSPINVESLLDGLNSLVLDLDFPALRKNKNIDNFLNRYEKIVKKIRGLQMKAEDYDVVKVIGRGAFGEVQLVRHKASQKVYAMKLLSKFEMIKRSDSAFFWEERDIMAFANSPWVVQLFYAFQDDRYLYMVMEYMPGGDLVNLMSNYDVPEKWAKFYTAEVVLALDAIHSMGLIHRDVKPDNMLLDKHGHLKLADFGTCMKMDETGMVHCDTAVGTPDYISPEVLKSQGGDGFYGRECDWWSVGVFLYEMLVGDTPFYADSLVGTYSKIMDHKNSLCFPEDAEISKHAKNLICAFLTDREVRLGRNGVEEIRQHPFFKNDQWHWDNIRETAAPVVPELSSDIDSSNFDDIEDDKGDVETFPIPKAFVGNQLPFIGFTYYRENLLLSDSPSCRETDSIQSRKNEESQEIQKKLYTLEEHLSNEMQAKEELEQKCKSVNTRLEKTAKELEEEITLRKSVESALRQLEREKALLQHKNAEYQRKADHEADKKRNLENDVNSLKDQLEDLKKRNQNSQISTEKVNQLQRQLDETNALLRTESDTAARLRKTQAESSKQIQQLESNNRDLQDKNCLLETAKLKLEKEFINLQSALESERRDRTHGSEIINDLQGRICGLEEDLKNGKILLAKVELEKRQLQERFTDLEKEKSNMEIDMTYQLKVIQQSLEQEEAEHKATKARLADKNKIYESIEEAKSEAMKEMEKKLLEERTLKQKVENLLLEAEKRCSLLDCDLKQSQQKINELLKQKDVLNEDVRNLTLKIEQETQKRCLTQNDLKMQTQQVNTLKMSEKQLKQENNHLMEMKMNLEKQNAELRKERQDADGQMKELQDQLEAEQYFSTLYKTQVRELKEECEEKTKLGKELQQKKQELQDERDSLAAQLEITLTKADSEQLARSIAEEQYSDLEKEKIMKELEIKEMMARHKQELTEKDATIASLEETNRTLTSDVANLANEKEELNNKLKDVQEQLSRLKDEEISAAAIKAQFEKQLLTERTLKTQAVNKLAEIMNRKEPVKRGNDTDVRRKEKENRKLHMELKSEREKLTQQMIKYQKELNEMQAQIAEESQIRIELQMTLDSKDSDIEQLRSQLQALHIGLDSSSIGSGPGDAEADDGFPESRLEGWLSLPVRNNTKKFGWVKKYVIVSSKKILFYDSEQDKEQSNPYMVLDIDKLFHVRPVTQTDVYRADAKEIPRIFQILYANEGESKKEQEFPVEPVGEKSNYICHKGHEFIPTLYHFPTNCEACMKPLWHMFKPPPALECRRCHIKCHKDHMDKKEEIIAPCKVYYDISTAKNLLLLANSTEEQQKWVSRLVKKIPKKPPAPDPFARSSPRTSMKIQQNQSIRRPSRQLAPNKPS | neither GFP-RhoAV14E40L nor GFP-RhoAN19 transfection shows no the enhancement of RCOKII Ser^1366 phosphorylation | the level of ROCK Ser^1366 phosphorylation in the GFP-RhoAV14 expression cells was enhanced | –
2 | endogenous human ROCKI, Ser^1333 phosphorylated (HEK-293T cell extracts) (protein) STGDSFETRFEKMDNLLRDPKSEVNSDCLLDGLDALVYDLDFPALRKNKNIDNFLSRYKDTINKIRDLRMKAEDYEVVKVIGRGAFGEVQLVRHKSTRKVYAMKLLSKFEMIKRSDSAFFWEERDIMAFANSPWVVQLFYAFQDDRYLYMVMEYMPGGDLVNLMSNYDVPEKWARFYTAEVVLALDAIHSMGFIHRDVKPDNMLLDKSGHLKLADFGTCMKMNKEGMVRCDTAVGTPDYISPEVLKSQGGDGYYGRECDWWSVGVFLYEMLVGDTPFYADSLVGTYSKIMNHKNSLTFPDDNDISKEAKNLICAFLTDREVRLGRNGVEEIKRHLFFKNDQWAWETLRDTVAPVVPDLSSDIDTSNFDDLEEDKGEEETFPIPKAFVGNQLPFVGFTYYSNRRYLSSANPNDNRTSSNADKSLQESLQKTIYKLEEQLHNEMQLKDEMEQKCRTSNIKLDKIMKELDEEGNQRRNLESTVSQIEKEKMLLQHRINEYQRKAEQENEKRRNVENEVSTLKDQLEDLKKVSQNSQLANEKLSQLQKQLEEANDLLRTESDTAVRLRKSHTEMSKSISQLESLNRELQERNRILENSKSQTDKDYYQLQAILEAERRDRGHDSEMIGDLQARITSLQEEVKHLKHNLEKVEGERKEAQDMLNHSEKEKNNLEIDLNYKLKSLQQRLEQEVNEHKVTKARLTDKHQSIEEAKSVAMCEMEKKLKEEREAREKAENRVVQIEKQCSMLDVDLKQSQQKLEHLTGNKERMEDEVKNLTLQLEQESNKRLLLQNELKTQAFEADNLKGLEKQMKQEINTLLEAKRLLEFELAQLTKQYRGNEGQMRELQDQLEAEQYFSTLYKTQVKELKEEIEEKNRENLKKIQELQNEKETLATQLDLAETKAESEQLARGLLEEQYFELTQESKKAASRNRQEITDKDHTVSRLEEANSMLTKDIEILRRENEELTEKMKKAEEEYKLEKEEEISNLKAAFEKNINTERTLKTQAVNKLAEIMNRKDFKIDRKKANTQDLRKKEKENRKLQLELNQEREKFNQMVVKHQKELNDMQAQLVEECAHRNELQMQLASKESDIEQLRAKLLDLSDSTSVASFPSADETDGNLPESRIEGWLSVPNRGNIKRYGWKKQYVVVSSKKILFYNDEQDKEQSNPSMVLDIDKLFHVRPVTQGDVYRAETEEIPKIFQILYANEGECRKDVEMEPVQQAEKTNFQNHKGHEFIPTLYHFPANCDACAKPLWHVFKPPPALECRRCHVKCHRDHLDKKEDLICPCKVSYDVTSARDMLLLACSQDEQKKWVTHLVKKIPKNPPSGFVRASPRTLSTRSTANQSFRKVVKNTSGKTS | – | – | the changes on the level of ROCKI Ser^1333 phosphorylaion also indeed enhanced due to RhoA activation
